{"source": "paper PMC10633859", "binders": {"B1": {"name": "fluorescent dsDNA 47 bp (dsDNA)", "DNA 1": "CAGATCTACCGAATCAGTCCGACGACGCATCTGCACTACGAGGATAC", "DNA 2": "GTATCCTCGTAGTGCAGATGCGTCGTCGGACTGATTCGGTAGATCTG"}}, "key": {"SIRT6(1-300)": {"target": "SIRT6(1-300) (human, UniProt Q8N6T7 1-300)", "sequence (Q8N6T7 1-300)": "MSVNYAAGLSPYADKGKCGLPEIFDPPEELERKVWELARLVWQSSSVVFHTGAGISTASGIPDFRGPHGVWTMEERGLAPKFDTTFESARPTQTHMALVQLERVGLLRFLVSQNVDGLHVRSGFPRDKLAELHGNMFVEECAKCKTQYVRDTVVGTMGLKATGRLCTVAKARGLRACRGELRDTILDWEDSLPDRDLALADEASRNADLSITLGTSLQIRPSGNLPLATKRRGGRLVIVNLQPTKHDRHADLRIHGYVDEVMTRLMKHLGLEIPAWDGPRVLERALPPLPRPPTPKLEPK", "assay": "EMSA"}, "[1]": {"target": "SIRT6 full length (SIRT6FL) (human, UniProt Q8N6T7 1-355)", "sequence (Q8N6T7 whole entry)": "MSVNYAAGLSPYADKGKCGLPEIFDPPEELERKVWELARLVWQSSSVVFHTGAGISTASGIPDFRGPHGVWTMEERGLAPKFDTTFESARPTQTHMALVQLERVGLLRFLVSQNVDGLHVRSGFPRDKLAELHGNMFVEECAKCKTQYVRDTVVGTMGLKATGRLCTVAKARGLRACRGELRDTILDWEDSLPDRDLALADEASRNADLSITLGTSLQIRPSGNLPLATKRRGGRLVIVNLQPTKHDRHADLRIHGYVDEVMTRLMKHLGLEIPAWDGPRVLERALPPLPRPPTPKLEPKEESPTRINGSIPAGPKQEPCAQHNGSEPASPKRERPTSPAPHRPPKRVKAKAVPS", "assay": "EMSA"}}}
{"binder": "B1", "values": [{"measurement": "Kd", "setting": "SIRT6(1-300)", "value": "9.68 ± 0.39", "unit": "µM"}, {"measurement": "Kd", "setting": "[1]", "value": "1.93 ± 0.1", "unit": "µM"}]}
